# Reference: IntAct's records for PubMed 22252131
# B1: E3 ubiquitin-protein ligase Hakai (Mus musculus), Q9JIY2 (parent)
# chain: MDHTDNELQGTNSSGSLGGLDVRRRIPIKLISKQASKVKPAPRTQRTVSRMPAKAPQGDEEGFDYNEEQRYDCKGGELFGNQRRFPGHLFWDFKINILGEKDDTPVHFCDKCGLPIKVYGRMIPCKHVFCYDCAILHEKKGDKMCPGCSDPVQRIEQCTRGSLFMCSIVQGCKRTYLSQRDLQAHINHRHMRAGKPVTRASLENVHPPIAPPPTDIPDRFIMPPDKHHMSHIPPKQHIMMPPPPLQHVPHEHYNQPHEDIRAPPAELSMAPPPPRSVSQETFRISTRKHSNLITVPIQDDSSSGAREPPPPAPAPAHHHPEYQGQPVVSHPHHIMPPQQHYAPPPPPPPPISHPMPHPPQAAGTPHLVYSQAPPPPMTSAPPPITPPPGHIIAQMPPYMNHPPPGPPPPQHGGPPVTAPPPHHYNPNSLPQFTEDQGTLSPPFTQPGGMSPGIWPAPRGPPPPPRMQGPPSQTPLPGPHHPDQTRYRPYYQ
# B2: Cadherin-1 (Homo sapiens), P12830 (parent)
# chain: MGPWSRSLSALLLLLQVSSWLCQEPEPCHPGFDAESYTFTVPRRHLERGRVLGRVNFEDCTGRQRTAYFSLDTRFKVGTDGVITVKRPLRFHNPQIHFLVYAWDSTYRKFSTKVTLNTVGHHHRPPPHQASVSGIQAELLTFPNSSPGLRRQKRDWVIPPISCPENEKGPFPKNLVQIKSNKDKEGKVFYSITGQGADTPPVGVFIIERETGWLKVTEPLDRERIATYTLFSHAVSSNGNAVEDPMEILITVTDQNDNKPEFTQEVFKGSVMEGALPGTSVMEVTATDADDDVNTYNAAIAYTILSQDPELPDKNMFTINRNTGVISVVTTGLDRESFPTYTLVVQAADLQGEGLSTTATAVITVTDTNDNPPIFNPTTYKGQVPENEANVVITTLKVTDADAPNTPAWEAVYTILNDDGGQFVVTTNPVNNDGILKTAKGLDFEAKQQYILHVAVTNVVPFEVSLTTSTATVTVDVLDVNEAPIFVPPEKRVEVSEDFGVGQEITSYTAQEPDTFMEQKITYRIWRDTANWLEINPDTGAISTRAELDREDFEHVKNSTYTALIIATDNGSPVATGTGTLLLILSDVNDNAPIPEPRTIFFCERNPKPQVINIIDADLPPNTSPFTAELTHGASANWTIQYNDPTQESIILKPKMALEVGDYKINLKLMDNQNKDQVTTLEVSVCDCEGAAGVCRKAQPVEAGLQIPAILGILGGILALLILILLLLLFLRRRAVVKEPLLPPEDDTRDNVYYYDEEGGGEEDQDFDLSQLHRGLDARPEVTRNDVAPTLMSVPRYLPRPANPDEIGNFIDENLKAADTDPTAPPYDSLLVFDYEGSGSEAASLSSLNSSESDKDQDYDYLNEWGNRFKKLADMYGGGEDD
# Variants of: B1
# Conditions: with cadh1_human CDH1, P12830
row,Variant,effect of a mutation on the interaction
1,C166A,disrupting interaction

# Variants of: B1
# Conditions: with src8_human CTTN
row,Variant,effect of a mutation on the interaction
1,C166A,disrupting interaction

# Variants of: B1
# Conditions: with cadh1_human CDH1, P12830
# Remark: another data set of the same source
row,Variant,effect of a mutation on the interaction
1,C172A,disrupting interaction

# Variants of: B1
# Conditions: with src8_human CTTN
# Remark: another data set of the same source
row,Variant,effect of a mutation on the interaction
1,C172A,disrupting interaction

# Variants of: B1
# Conditions: with cadh1_human CDH1, P12830
# Remark: another data set of the same source
row,Variant,effect of a mutation on the interaction
1,Y176A,disrupting interaction

# Variants of: B1
# Conditions: with src8_human CTTN
# Remark: another data set of the same source
row,Variant,effect of a mutation on the interaction
1,Y176A,disrupting interaction

# Variants of: B1
# Conditions: with cadh1_human CDH1, P12830
# Remark: another data set of the same source
row,Variant,effect of a mutation on the interaction
1,H190A,disrupting interaction

# Variants of: B1
# Conditions: with src8_human CTTN
# Remark: another data set of the same source
row,Variant,effect of a mutation on the interaction
1,H190A,disrupting interaction

# Variants of: B1
# Conditions: with cadh1_human CDH1, P12830
# Remark: another data set of the same source
row,Variant,effect of a mutation on the interaction
1,H185A,disrupting interaction

# Variants of: B1
# Conditions: with src8_human CTTN
# Remark: another data set of the same source
row,Variant,effect of a mutation on the interaction
1,H185A,disrupting interaction

# Variants of: B1
# Conditions: with cadh1_human CDH1, P12830
# Remark: another data set of the same source
row,Variant,effect of a mutation on the interaction
1,R189A,disrupting interaction

# Variants of: B1
# Conditions: with src8_human CTTN
# Remark: another data set of the same source
row,Variant,effect of a mutation on the interaction
1,R189A,disrupting interaction

# Variants of: B1
# Conditions: with cadh1_human CDH1, P12830
# Remark: another data set of the same source
row,Variant,effect of a mutation on the interaction
1,H127A,disrupting interaction

# Variants of: B1
# Conditions: with src8_human CTTN
# Remark: another data set of the same source
row,Variant,effect of a mutation on the interaction
1,H127A,disrupting interaction

# Variants of: B2
# Conditions: with hakai_mouse Cbll1, Q9JIY2
row,Variant,effect of a mutation on the interaction
1,Y753F,disrupting interaction

# Variants of: B2
# Conditions: with hakai_mouse Cbll1, Q9JIY2
# Remark: another data set of the same source
row,Variant,effect of a mutation on the interaction
1,Y754F,disrupting interaction

# Variants of: B2
# Conditions: with hakai_mouse Cbll1, Q9JIY2
# Remark: another data set of the same source
row,Variant,effect of a mutation on the interaction
1,V752A,disrupting interaction

# Variants of: B2
# Conditions: with hakai_mouse Cbll1, Q9JIY2
# Remark: another data set of the same source
row,Variant,effect of a mutation on the interaction
1,D750A,disrupting interaction

# Variants of: B2
# Conditions: with hakai_mouse Cbll1, Q9JIY2
# Remark: another data set of the same source
row,Variant,effect of a mutation on the interaction
1,Y755F,disrupting interaction

# Variants of: B2
# Conditions: with hakai_mouse Cbll1, Q9JIY2
# Remark: another data set of the same source
row,Variant,effect of a mutation on the interaction
1,D756A,disrupting interaction

# Variants of: B2
# Conditions: with hakai_mouse Cbll1, Q9JIY2
# Remark: another data set of the same source
row,Variant,effect of a mutation on the interaction
1,E757A,disrupting interaction
